Source: patent US20110262447A1

Molecular target: wild-type p53 core domain (human) (UniProt P04637)
Assay: ELISA, plates coated with recombinant core domain

Sequence of wild-type p53 core domain (human) (P04637 94-312): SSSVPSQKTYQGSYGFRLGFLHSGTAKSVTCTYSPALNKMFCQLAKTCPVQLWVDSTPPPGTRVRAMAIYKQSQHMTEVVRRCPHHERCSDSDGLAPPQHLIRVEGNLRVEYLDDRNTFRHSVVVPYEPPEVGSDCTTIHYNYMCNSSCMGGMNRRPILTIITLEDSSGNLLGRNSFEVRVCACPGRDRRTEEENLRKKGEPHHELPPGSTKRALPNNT

## mAb 1620 (antibody)
  O.D.: 1.2 O.D.
